Data taken from PMC5477644.

How the values were obtained:
[1] = molecular target: 6His-Ska1/Ska2/Ska3 (WT) (UniProt Q96BD8); test: SEC + other: velocity sedimentation on a sucrose gradient
[2] = molecular target: tubulin (microtubules); test: TIRF, tracking of depolymerizing microtubule ends; details: reference: SKA wild type complex; sites S34

Chain of 6His-Ska1/Ska2/Ska3 (WT) (from UniProt Q96BD8 1-255; Q8WVK7 1-121; Q8IX90 1-412) (complex) (Q96BD8 whole entry): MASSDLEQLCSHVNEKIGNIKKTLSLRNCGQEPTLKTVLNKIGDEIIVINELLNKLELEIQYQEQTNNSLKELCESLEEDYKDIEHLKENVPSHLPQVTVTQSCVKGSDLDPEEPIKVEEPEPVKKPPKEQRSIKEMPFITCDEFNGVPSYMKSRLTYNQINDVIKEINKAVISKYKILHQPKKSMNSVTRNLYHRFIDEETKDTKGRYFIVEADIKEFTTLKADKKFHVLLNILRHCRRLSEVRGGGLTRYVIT
Chain of 6His-Ska1/Ska2/Ska3 (WT) (from UniProt Q96BD8 1-255; Q8WVK7 1-121; Q8IX90 1-412) (complex) (Q8WVK7 whole entry): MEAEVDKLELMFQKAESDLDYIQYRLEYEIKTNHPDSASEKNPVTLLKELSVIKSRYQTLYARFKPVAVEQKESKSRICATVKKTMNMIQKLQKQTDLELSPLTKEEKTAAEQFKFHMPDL
Chain of 6His-Ska1/Ska2/Ska3 (WT) (from UniProt Q96BD8 1-255; Q8WVK7 1-121; Q8IX90 1-412) (complex) (Q8IX90 whole entry): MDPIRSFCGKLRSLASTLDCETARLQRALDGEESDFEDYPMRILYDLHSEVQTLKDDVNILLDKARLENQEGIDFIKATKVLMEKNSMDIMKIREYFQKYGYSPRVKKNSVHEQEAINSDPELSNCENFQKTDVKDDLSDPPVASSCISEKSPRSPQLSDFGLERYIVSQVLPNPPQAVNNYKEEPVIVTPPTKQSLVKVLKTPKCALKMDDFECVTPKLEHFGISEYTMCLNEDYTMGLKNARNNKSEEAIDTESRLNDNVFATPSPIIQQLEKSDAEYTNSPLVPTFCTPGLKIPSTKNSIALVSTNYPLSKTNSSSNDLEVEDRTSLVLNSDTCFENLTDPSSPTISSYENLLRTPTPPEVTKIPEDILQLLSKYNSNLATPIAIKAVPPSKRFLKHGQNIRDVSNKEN
Chain of Ska3 (C13orf3, RAMA1) (Q8IX90 whole entry, looked up, stated change not applied): as the sequence (Q8IX90 whole entry) above

Row | Substance | stoichiometry N [1] | other: median post/pre-conversion intensity ratio [2]
1 | 6His-Ska1/Ska2/Ska3 (WT) (from UniProt Q96BD8 1-255; Q8WVK7 1-121; Q8IX90 1-412) (complex) | 2 | –
2 | Ska3 (C13orf3, RAMA1) (from UniProt Q8IX90) SKA S34A complex | – | same; reference 1.01
